Results: patent US20160145328A1 (published 2016)
Positions count from the first letter of the chain named. Names and notes keep the numbering of the source.

B1: scFv DP47 VH A33D - linker - common VL (scFv, name in Kabat numbering)
scFv: QVQLLESGGGLVQPGGSLRLSCAASGFTFSSYDMSWVRQAPGKGLEWVSAISGSGGSTYYADSVKGRFTISRDNSKNTLYLQMNSLRAEDTAVYYCAKSYGAFDYWGQGTLVTVSSGGGGSGGGGSGGGGSTDIQMTQSPSSLSASVGDRVTITCRASQSISSYLNWYQQKPGKAPKLLIYAYSDLQSGVPSGFSGSGSGTDFTLTISSLQPEDFATYYCQQLMTHPTTFGQGTKVEIKR
notes: also called A33D (scFv)
B2: scFv DP47 VH T28R - linker - common VL (scFv, name in Kabat numbering)
scFv: B1 scFv with T28R, D33A
notes: also called T28R (scFv)
B3: scFv DP47 VH S35G - linker - common VL (scFv, name in Kabat numbering)
scFv: B1 scFv with D33A, S35G
notes: also called S35G (scFv)
B4: scFv DP47 VH S31D - linker - common VL (scFv)
scFv: B1 scFv with S31D, D33A
notes: also called S31D (scFv)
B5: scFv DP47 VH Y32E - linker - common VL (scFv)
scFv: B1 scFv with Y32E, D33A
notes: also called Y32E (scFv)

Biological target: T1, protein A (UniProt P38507 37-477)
T1 construct: also called Protein A superantigen
Test: Heat/Cool phage ELISA: phage-displayed scFv, 80 C 10 min then 4 C 10 min, captured on coated protein A; signal as % of untreated sample
Procedure: The aggregation-resistance of clones was analyzed by measuring retention of signal after heat incubation in a phage ELISA format (McCafferty et al., 1990; Jespers et al., 2004). Wells of a Nunc Maxisorp Immuno-plate were coated overnight with protein A at a concentration of about 5 μg/ml in phosphate-buffered saline (PBS). The plate was washed once with PBS and blocked with about 4% (w/v) milk powder diluted in PBS (MPBS). Single colonies were picked from agar plates and grown overnight in 2×TY medium (containing about 16 g/L tryptone; about 10 g/L yeast extract; about 5 g/L NaCl, pH 7.0) supplemented with about 15 μg/ml tetracycline shaking at about 30° C. Cells were removed by centrifugation and phages were biotinylated directly in the culture supernatant by adding biotin-PEO₄-N-hydroxysuccinimide (Pierce; about 50 μM final concentration). For heat selection, supernatant was first incubated at about 80° C. for about 10 min and then at about 4° C. for about 10 min. Supernatant was added to the blocked ELISA wells. After three washes with PBS, bound phage particles were detected using an Extravidin-HRP conjugate (Sigma) and 3,3′,5,5′-tetramethylbenzidine (TMB) substrate. Absorbance was calculated by subtracting measurements at 450 and 650 nm.
The DP47-CDR1 mutants described above were paired with a common single variable light chain (VL; SEQ ID NO: 3) via a linker (SEQ ID NO: 4) in a scFv format (see the Materials and Methods section for full experimental details). […] Correctly folded scFv were captured by protein A ELISA and the absorbance signal of the treated sample was calculated as a percentage of the untreated sample.

Compared with B1, B2 is lower in “Retained binding to protein A” value: 22% for the first, 4% for the second.

Compared with B3, B4 is higher in “Retained binding to protein A” value: 5% for the first, 29% for the second.

For B5, the “Retained binding to protein A” value was 27%.
